From patent publication US20160348147A1, “SYSTEMS AND DEVICES FOR PROTEASE DETECTION BASED ON ENGINEERED POLYMERS AND BIOPOLYMERS AND METHODS OF USE” (DUKE UNIVERSITY, priority 2014, published 2016)
Where “and” joins values, the source holds several entries; their conditions need not be identical. Equal values may be shown once.

Legend:
[1] = test system: endogenous MMP-1 in human serum; assay: Time-dependent aggregation (OD350) of ELP-substrate fusion in diluted human serum (40%); assay type: biochemical; conditions: diluted serum with no added MMP-1, 37° C.
Method: (§1) We performed the proteolysis reactions either in 100% protease buffer or in a mixture of human serum and buffer (40% (v/v) serum, 50% (v/v) buffer, 10% (v/v) ELP-substrate solution in water). The proteolysis buffer (100 mM HEPES, CaCl2 20 mM, MgCl2 1.0 mM, ZnCl2 100 μM, NaCl 0.5 M for diluted serum and 0.1 M for buffer solutions) was made experimentally in our lab based on previously published assays (Patterson, J. & Hubbell, J. A. Biomaterials 2010, 31, 7836-7845; Turk, B. E. et al., Nature Biotechnology 2001, 19, 661-667; Lowe, S. B. et al., Acs Nano 2012, 6, 851-857). We investigated proteolysis in two ways. In the first approach, we incubated solutions of the ELP-substrate fusion with MMP-1 (100 ng/mL) for 12 h at 40° C. temperature and measured the optical density at 350 nm (OD350) before and after the incubation. In the second approach, we incubated the ELP-substrate fusion with varying concentrations of MMP-1 (0.02 ng/mL to 200 ng/mL) in buffer or in diluted human serum, at 40° C. or 37° C. respectively, a temperature that is above the CMT of the ELP, and monitored the changes OD350 as a function of time (kinetic study). For the kinetic studies, we added the enzyme to the solution after the optical density of the solution reached a steady-state value and repeated the experiments at least three times. […]

[2] = biological target: T1, Human MMP-1 catalytic domain (Homo sapiens, UniProt P03956); assay: Time-dependent aggregation (OD350) of ELP-substrate fusion with MMP-1 in proteolysis buffer; assay type: biochemical; conditions: 50 ng/mL MMP-1, without the inhibitor, proteolysis buffer, 40° C., 100 μM
T1 construct: Human MMP-1 catalytic domain (recombinant, produced in E. coli, 19.9 kDa, >95% purity); purchased Enzo Life Sciences (Farmingdale, N.Y.); host or cells: E. coli
T1 sequence (P03956 100-269 limits assumed): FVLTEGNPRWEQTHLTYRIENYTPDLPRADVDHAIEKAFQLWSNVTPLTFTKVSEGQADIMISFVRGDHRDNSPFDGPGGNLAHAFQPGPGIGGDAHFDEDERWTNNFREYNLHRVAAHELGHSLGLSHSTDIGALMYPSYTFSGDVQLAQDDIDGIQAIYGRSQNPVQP

[3] = Thermal behavior by optical turbidimetry and dynamic light scattering; assay type: physicochemical; conditions: 100 μM in buffer
Method: We confirmed the purity and molecular weight of the purified peptides by electrophoresis (10-20% gradient […] SDS-PAGE, Thermo Scientific, CA) and by matrix-assisted laser desorption/ionization mass spectrometry. Mass spectrometry samples were prepared by mixing the enzymatic reaction product with sinapinic acid in 1:10 ratio. 1 μL of the sample/matrix mixture was then loaded on the grid and the measurements were performed on a Voyager-DE-Pro instrument (Applied Biosystems, Germany). To determine the concentration of the ELP-substrate fusion solutions we used a calculated extinction coefficient (Gill, S. C. & Vonhippel, P. H. Analytical Biochemistry 1989, 182, 319-326) or lyophilized the polypeptide solution. We studied the thermal behavior of the ELP-substrate fusion constructs in both proteolysis buffer (see below) and diluted human serum in the presence and absence of MMP-1 using optical turbidimetry on a temperature-programmed UV-vis spectrometer (Cary 300, Agilent Technologies). To characterize the size of the micelles and aggregates, we used single angle dynamic light scattering (DLS; DynaPro, Protein Solution).
FIG. 2 presents optical densities at 350 nm (OD350) and hydrodynamic diameters of ELP-substrate fusion as a function of temperature prior to, and after, enzymatic reaction. […] These changes are consistent with the self-assembly of ELP-substrate fusions (unimers) into micelles as the temperature is raised above the CMT (Ghoorchian, A. et al., The Journal of Physical Chemistry. B 2013, 117, 8865-8874). We note that there is a slight local maximum in both the optical density and hydrodynamic diameter at temperatures slightly above the CMT, which has been observed previously (Hassouneh, W., Duke University, PhD thesis, 2013); the origin of this small peak is, as yet, unclear.

MMP-1 = biological target: T2, MMP-1 (Homo sapiens, UniProt P03956); assay: Thermal behavior (OD350, DLS) after incubation with MMP-1; assay type: biochemical; conditions: MMP-1 100 ng/mL, 12 h at 40° C.
T2 construct: Human MMP-1 catalytic domain (recombinant, produced in E. coli, 19.9 kDa, >95% purity); purchased Enzo Life Sciences (Farmingdale, N.Y.); host or cells: E. coli
T2 sequence (P03956 100-269 limits assumed): T1 sequence (P03956 100-269 limits assumed)
Method: as §1

[4] = DLS, prior to enzymatic reaction

Substance: M(GVGVP)60GDGQVPMSMRGGDDEGQQDDEEGY (MGVGVPGDGQVPMSMRGGDDEGQQDDEEGY) [ELP-substrate fusion, recombinant polypeptide: ELP fused to MMP-1 substrate and charged hydrophilic peptide]
- aggregation time [1]: ~350 min
- aggregation time [2]: less than 50 min
- critical micellization temperature (CMT) ([3]; prior to enzymatic reaction): ≈ 38 °C and 38 °C
- hydrodynamic diameter above Tt [3, 4]: ≈ 50 nm
- hydrodynamic diameter below the CMT [3, 4]: < 10 nm
- increase of OD350 as the solution is heated through the CMT ([3]; before enzymatic reaction): about 0.2 OD units
- temperature above which large aggregates form after incubation with MMP-1 (MMP-1; 100 μM): ≈ 37 °C
- particle diameter after incubation with MMP-1 (MMP-1; DLS at 38° C.): over a micron
